Assay results: patent US11235041B2, “Peptides and combination of peptides for use in immunotherapy against various cancers” (Immatics Biotechnologies GmbH, priority 2015, dated 2022)

Assays:
HLA-A*02 = HLA-A*02 (Homo sapiens, UniProt P04439, D140Y/D185E/D98H/E176V/E277Q/G131W/G231S/I119V/I121R/I166T/I218V/L300P/N151K/N90K/P208A/P217A/Q86G/Q94H/R138H/R169H); experiment: MHC binding assay: UV-ligand exchange and beta2m ELISA, peptide exchange yield (Table 20); conditions: binding to HLA-A*02; UV-ligand exchange, beta2m ELISA
Excerpt: Candidate peptides for T cell based therapies according to the present invention were further tested for their MHC binding capacity (affinity). The individual peptide-MHC complexes were produced by UV-ligand exchange, where a UV-sensitive peptide is cleaved upon UV-irradiation, and exchanged with the peptide of interest as analyzed. Only peptide candidates that can effectively bind and stabilize the peptide-receptive MHC molecules prevent dissociation of the MHC complexes. To determine the yield of the exchange reaction, an ELISA was performed based on the detection of the light chain (β2m) of stabilized MHC complexes. The assay was performed as generally described in Rodenko et al. (Rodenko et al., 2006).
96 well MAXISorp plates (NUNC) were coated over night with 2 ug/ml streptavidin in PBS at room temperature, washed 4× and blocked for1h at 37° C. in 2% BSA containing blocking buffer. Refolded HLA-A*02:01/MLA-001 monomers served as standards, covering the range of 15-500 ng/ml. Peptide-MHC monomers of the UV-exchange reaction were diluted 100 fold in blocking buffer. Samples were incubated for 1h at 37° C., washed four times, incubated with 2 ug/ml HRP conjugated anti-β2m for 1h at 37′C, washed again and detected with TMB solution that is stopped with […]. Absorption was measured at 450 nm. Candidate peptides that show a high exchange yield (preferably higher than 50%, most preferred higher than 75%) are generally preferred for a generation and production of antibodies or fragments thereof, and/or T cell receptors or fragments thereof, as they show sufficient avidity to the MHC molecules and prevent dissociation of the MHC complexes.
Table 20: MHC class I binding scores. Binding of HLA-class I restricted peptides to HLA-A*02 was ranged by peptide exchange yield: <20%=+; 20%-49%=++; 50%-75%=+++; >=75%=++++

[1] = tested on: CD8+ T cells of healthy HLA-A*02+ donors; experiment: In vitro T-cell priming assay with artificial antigen presenting cells loaded with peptide/HLA-A*02 complexes and anti-CD28, multimer readout; type: cell-based, human; conditions: HLA-A*02 peptides; peptide-specific multimer+ CD8+ T cells after in vitro priming; Table 19B
Excerpt: FIGS. 4A to 4D show exemplary results of peptide-specific in vitro CD8+ T cell responses of a healthy HLA-A*02+ donor. CD8+ T cells were primed using artificial APCs coated with anti-CD28 mAb and HLA-A*02 in complex with SeqID No 27 peptide (FIG. 4A, left panel), SeqID No 229 peptide (FIG. 4B, left panel), SeqID No 230 peptide (FIG. 4C, left panel) and SeqID No 235 peptide (FIG. 4D, left panel), respectively. After three cycles of stimulation, the detection of peptide-reactive cells was performed by 2D multimer staining with A*02/SeqID No 27 (FIG. 4A), A*02/SeqlD No 229 (FIG. 4B), A*02/SeqlD No 230 (FIG. 4C) or A*02/SeqlD No 235 (FIG. 4D). Right panels (FIGS. 4A, 4B, 4C and 4D) show control staining of cells stimulated with irrelevant A*02/peptide complexes. Viable singlet cells were gated for CD8+ lymphocytes. Boolean gates helped excluding false-positive events detected with multimers specific for different peptides. Frequencies of specific multimer+ cells among CD8+ lymphocytes are indicated.
In order to obtain information regarding the immunogenicity of the TUMAPs of the present invention, the inventors performed investigations using an in vitro T-cell priming assay based on repeated stimulations of CD8+ T cells with artificial antigen presenting cells (aAPCs) loaded with peptide/MHC complexes and anti-CD28 antibody.
In order to perform in vitro stimulations by artificial antigen presenting cells loaded with peptide-MHC complex (pMHC) and anti-CD28 antibody, the inventors first isolated CD8+ T cells from fresh HLA-A*02 leukapheresis products via positive selection using CD8 microbeads (Miltenyi Biotec, Bergisch-Gladbach, Germany) of healthy donors obtained from the University clinics Mannheim, Germany, after informed consent.
PBMCs and isolated CD8+ lymphocytes were incubated in T-cell medium (TCM) until use consisting of RPMI-Glutamax (Invitrogen, Karisruhe, Germany) supplemented with 10% heat inactivated human AB serum (PAN-Biotech, Aidenbach, Germany), 100 U/ml Penicillin/100 μg/ml Streptomycin (Cambrex, Cologne, Germany), 1 mM sodium pyruvate (CC Pro, Oberdorla, Germany), 20 μg/ml Gentamycin (Cambrex). 2.5 ng/ml IL-7 (PromoCell, Heidelberg, Germany) and 10 U/ml IL-2 (Novartis Pharma, Nürnberg, Germany) were also added to the TCM at this step.
Generation of pMHC/anti-CD28 coated beads, T-cell stimulations and readout was performed in a highly defined in vitro system using four different pMHC molecules per stimulation condition and 8 different pMHC molecules per readout condition.
The purified co-stimulatory mouse IgG2a anti human CD28 Ab 9.3 (Jung et al., 1987) was chemically biotinylated using Sulfo-N-hydroxysuccinimidobiotin as recommended by the manufacturer (Perbio, Bonn, Germany). Beads used were 5.6 μm diameter streptavidin coated polystyrene particles (Bangs Laboratories, Illinois, USA).
pMHC used for positive and negative control stimulations were A*0201/MLA-001 (peptide […] (SEQ ID NO. 303) from modified Melan-A/MART-1) and A*0201/DDX5-001 ([…] from DDX5, SEQ ID NO. 304), respectively.
800.000 beads/200 μl were coated in 96-well plates in the presence of 4×12.5 ng different biotin-pMHC, washed and 600 ng biotin anti-CD28 were added subsequently in a volume of 200 μl. Stimulations were initiated in 96-well plates by co-incubating 1×10^6 CD8+ T cells with […] washed coated beads in 200 μl TCM supplemented with 5 ng/ml IL-12 (PromoCell) for 3 days at 37° C. Half of the medium was then exchanged by fresh TCM supplemented with 80 U/ml IL-2 and incubating was continued for 4 days at 37° C. This stimulation cycle was performed for a total of three times. For the pMHC multimer readout using 8 different pMHC molecules per condition, a two-dimensional combinatorial coding approach was used as previously described (Andersen et al., 2012) with minor modifications encompassing coupling to 5 different fluorochromes. […]

1 (LLYPEPWSV; listed as Homo sapiens) [compound 1]
Peptide exchange (MHC class I binding score, peptide exchange yield) (HLA-A*02): ++++ (>=75% = ++++) | Wells positive [%] (in vitro immunogenicity) [1]: ++ (20%-49%=++)

4 (KLMPGTYTL; listed as Homo sapiens) [compound 4]
Peptide exchange (MHC class I binding score, peptide exchange yield) (HLA-A*02): ++++ (>=75% = ++++) | Wells positive [%] (in vitro immunogenicity) [1]: + (<20%=+)

12 (GLLPLLHRA; listed as Homo sapiens) [compound 12]
Peptide exchange (MHC class I binding score, peptide exchange yield) (HLA-A*02): ++++ (>=75% = ++++) | Wells positive [%] (in vitro immunogenicity) [1]: ++++ (>=70%=++++)

14 (ILAKDLFEI; listed as Homo sapiens) [compound 14]
Peptide exchange (MHC class I binding score, peptide exchange yield) (HLA-A*02): ++++ (>=75% = ++++) | Wells positive [%] (in vitro immunogenicity) [1]: ++ (20%-49%=++)

92 (GLLFSLRSV; listed as Homo sapiens) [compound 92]
Peptide exchange (MHC class I binding score, peptide exchange yield) (HLA-A*02): ++++ (>=75% = ++++) | Wells positive [%] (in vitro immunogenicity) [1]: ++ (20%-49%=++)

229 (AILAHLNTV; listed as Homo sapiens) [compound 229]
Peptide exchange (MHC class I binding score, peptide exchange yield) (HLA-A*02): ++++ (>=75% = ++++) | Wells positive [%] (in vitro immunogenicity) [1]: ++ (20%-49%=++)

248 (YLDRFLAGV; listed as Homo sapiens) [compound 248]
Peptide exchange (MHC class I binding score, peptide exchange yield) (HLA-A*02): ++++ (>=75% = ++++) | Wells positive [%] (in vitro immunogenicity) [1]: ++ (20%-49%=++)

249 (GLCERLVSL; listed as Homo sapiens) [compound 249]
Peptide exchange (MHC class I binding score, peptide exchange yield) (HLA-A*02): ++++ (>=75% = ++++) | Wells positive [%] (in vitro immunogenicity) [1]: + (<20%=+)
